# Assay results from patent US20150166606A1 (RA PHARMACEUTICALS, published 2015).
# Numbered stars: 1 amine (or outer) side, 2 acyl side, 3 side chain; on linkers, the order of the positions; unused ones are H or OH. Bridge positions count the residues as written; N and C are the ends. Square brackets hold non-standard residues; d marks the D form. Primed or numbered codes have the meaning given here. Ends that are not written are not given here. ABP = 2-amino-3-(5-bromothiophen-2-yl)propanoic acid, O=C([C@H](Cc1ccc(Br)s1)N[*:1])[*:2]; mXylyl = xylyl linker from dibromoxylene joining the two cysteines; des‑NH2 = missing amino-terminal amine group; Phe(4-amidino)′ = not defined here; Igl = N[C@H](C(=O)O)C1Cc2ccccc2C1; NMeR = CN[C@@H](CCCNC(=N)N)C(=O)O; dPhg = N[C@@H](C(=O)O)c1ccccc1; Chg = N[C@H](C(=O)O)C1CCCCC1; Phg = N[C@H](C(=O)O)c1ccccc1; Tle = CC(C)(C)[C@H](N)C(=O)O; Dab = NCC[C@H](N)C(=O)O; Nva = CCC[C@H](N)C(=O)O
# B1: R2128 (peptide)
# peptide: Ac-CNYWSPWTAC-NH2
# modifications: cysteine pairing not given here
# B2: R2141 (peptide)
# peptide: Ac-[Nva]NYWSPWTA[Nva]-NH2
# SMILES: CCC[C@H](NC(=O)[C@H](C)NC(=O)[C@@H](NC(=O)[C@H](Cc1c[nH]c2ccccc12)NC(=O)[C@@H]1CCCN1C(=O)[C@H](CO)NC(=O)[C@H](Cc1c[nH]c2ccccc12)NC(=O)[C@H](Cc1ccc(O)cc1)NC(=O)[C@H](CC(N)=O)NC(=O)[C@H](CCC)NC(C)=O)[C@@H](C)O)C(N)=O
# B3: R2122 (peptide)
# peptide: MCNYWSPWTSEI-NH2
# B4: R2112 (peptide)
# peptide: MCNYWSPWTE-NH2
# B5: R2116 (peptide)
# peptide: Ac-CNYWSPWTECSA-NH2
# modifications: cysteine pairing not given here
# B6: R2133 (peptide)
# peptide: Ac-CNAWSPWTEC-NH2
# modifications: cysteine pairing not given here
# B7: R2114 (peptide)
# peptide: MCNYWSPW-NH2
# B8: R2134 (peptide)
# peptide: Ac-CNYWSPWTC-NH2
# modifications: cysteine pairing not given here
# B9: R2119 (peptide)
# peptide: Ac-WSPWTECSA-NH2
# B10: R2139 (peptide)
# peptide: Ac-[Nva]NYWSPWTAC-NH2
# SMILES: CCC[C@H](NC(C)=O)C(=O)N[C@@H](CC(N)=O)C(=O)N[C@@H](Cc1ccc(O)cc1)C(=O)N[C@@H](Cc1c[nH]c2ccccc12)C(=O)N[C@@H](CO)C(=O)N1CCC[C@H]1C(=O)N[C@@H](Cc1c[nH]c2ccccc12)C(=O)N[C@H](C(=O)N[C@@H](C)C(=O)N[C@@H](CS)C(N)=O)[C@@H](C)O
# B11: R2106 (peptide)
# peptide: Ac-NYWSPWT-NH2
# B12: R2136 (peptide)
# peptide: Ac-CNYWSPWTAC-NH2
# modifications: linker 1-10 via mXylyl
# B13: R2132 (peptide)
# peptide: Ac-CNYASPWTEC-NH2
# modifications: cysteine pairing not given here
# B14: R2111 (peptide)
# peptide: MCNYWSPWTEC-NH2
# modifications: cysteine pairing not given here
# B15: R2126 (peptide)
# peptide: Ac-CNYWSPWTEC-NH2
# modifications: cysteine pairing not given here
# B16: R2110 (peptide)
# peptide: MCNYWSPWTECS-NH2
# modifications: cysteine pairing not given here
# B17: R2115 (peptide)
# peptide: MCNYWSP-NH2
# B18: R2121 (peptide)
# peptide: Ac-PWTECSA-NH2
# B19: R2130 (peptide)
# peptide: Ac-CNYWSPATEC-NH2
# modifications: cysteine pairing not given here
# B20: R2140 (peptide)
# peptide: Ac-CNYWSPWTA[Nva]-NH2
# SMILES: CCC[C@H](NC(=O)[C@H](C)NC(=O)[C@@H](NC(=O)[C@H](Cc1c[nH]c2ccccc12)NC(=O)[C@@H]1CCCN1C(=O)[C@H](CO)NC(=O)[C@H](Cc1c[nH]c2ccccc12)NC(=O)[C@H](Cc1ccc(O)cc1)NC(=O)[C@H](CC(N)=O)NC(=O)[C@H](CS)NC(C)=O)[C@@H](C)O)C(N)=O
# B21: R2107 (peptide)
# peptide: MSNYWSPWTESSA-NH2
# B22: R2142 (peptide)
# peptide: Ac-CNYWSPWTAC-NH2
# modifications: disulfide 1-10
# SMILES: CC(=O)N[C@H]1CSSC[C@@H](C(N)=O)NC(=O)[C@H](C)NC(=O)[C@H]([C@@H](C)O)NC(=O)[C@H](Cc2c[nH]c3ccccc23)NC(=O)[C@@H]2CCCN2C(=O)[C@H](CO)NC(=O)[C@H](Cc2c[nH]c3ccccc23)NC(=O)[C@H](Cc2ccc(O)cc2)NC(=O)[C@H](CC(N)=O)NC1=O
# B23: R2137 (peptide)
# peptide: Ac-CNYWSAWTEC-NH2
# modifications: cysteine pairing not given here
# B24: R2113 (peptide)
# peptide: MCNYWSPWT-NH2
# B25: R2117 (peptide)
# peptide: Ac-NYWSPWTECSA-NH2
# B26: R2138 (peptide)
# peptide: Ac-ANYWSPWTEC-NH2
# B27: R2108 (peptide)
# peptide: MCNYWSPWTECSA-NH2
# modifications: linker 2-11 via mXylyl
# B28: R2105 (peptide)
# peptide: MCNYWSPWTSEIC-NH2
# modifications: cysteine pairing not given here
# B29: R2124 (peptide)
# peptide: MCNYWSPWTS-NH2
# B30: R2129 (peptide)
# peptide: Ac-CNYWSPWAEC-NH2
# modifications: cysteine pairing not given here
# B31: R2120 (peptide)
# peptide: Ac-SPWTECSA-NH2
# B32: R2131 (peptide)
# peptide: Ac-CNYWAPWTEC-NH2
# modifications: cysteine pairing not given here
# B33: R2123 (peptide)
# peptide: MCNYWSPWTSE-NH2
# B34: R2125 (peptide)
# peptide: Ac-CNYWSPWTECSA-NH2
# modifications: linker 1-10 via mXylyl
# B35: R2135 (peptide)
# peptide: Ac-CNYWSPWT-NH2
# B36: R2127 (peptide)
# peptide: Ac-CNYWSPWTEA-NH2
# B37: R2118 (peptide)
# peptide: Ac-YWSPWTECSA-NH2
# B38: R2109 (peptide)
# peptide: MCNYWSPWTSEIC-NH2
# modifications: linker 2-13 via mXylyl
# B39: R2217 (peptide)
# peptide: {des‑NH2}-CP[dPhg]CR[Tle]L[NMeR]YSE-NH2
# modifications: linker 1-4 via mXylyl
# B40: R2216 (peptide)
# peptide: {des‑NH2}-CP[Phg]CR[Tle]L[NMeR]YSE-NH2
# modifications: linker 1-4 via mXylyl
# B41: R2214 (peptide)
# peptide: {des‑NH2}-CP[Chg]CR[Tle]-OH
# modifications: linker 1-4 via mXylyl
# B42: R2219 (peptide)
# peptide: {des‑NH2}-CP[Phg]C[ABP][Tle]-NH2
# modifications: bridge 1-4; not fully specified (residue 1, bridges); printed as [mXylyl(1,4)(des-NH2)C-P-Phg-C-ABP-Tbg-NH2
# B43: R2220 (peptide)
# peptide: {des‑NH2}-CP[dPhg]C[ABP][Tle]-NH2
# modifications: bridge 1-4; not fully specified (residue 1, bridges); printed as [mXylyl(1,4)](des-NH2)C-P-(D-Phg)-C-ABP-Tbg-NH2
# B44: R2218 (peptide)
# peptide: {des‑NH2}-CP[Igl]CR[Tle]-NH2
# modifications: bridge 1-4; not fully specified (residue 1, bridges); printed as [mXylyl(1,4)](des-NH2)C-P-Ind-CR-Tbg-NH2
# B45: R2213 (peptide)
# peptide: {des‑NH2}-CE(PEG 40 kDa)[Chg]CR[Tle]-NH2
# modifications: linker 1-4 via mXylyl
# B46: R2215 (peptide)
# peptide: {des‑NH2}-CP[Phg]C[Phe(4-amidino)′]V-NH2
# modifications: linker 1-4 via mXylyl
# B47: R2212 (peptide)
# peptide: {des‑NH2}-CP[dPhg]C[Dab][Tle]-NH2
# modifications: bridge 1-4; not fully specified (residue 1, bridges); printed as [mXylyl(1,4)](des-NH2)C-P-(D-Phg)-C-Dab-Tbg-NH2
# B48: R2221 (peptide)
# peptide: {des‑NH2}-CP[Phg]C-{4‑(aminomethyl)benzimidamide}
# modifications: linker 1-4 via mXylyl
# Molecular target: T1, Activated human plasma kallikrein (Enzyme Research Laboratories, HPKa 1303) (human, UniProt P03952 20-638)
# Experiment: cell-based or functional assay
# T1 sequence (P03952 20-638 limits assumed): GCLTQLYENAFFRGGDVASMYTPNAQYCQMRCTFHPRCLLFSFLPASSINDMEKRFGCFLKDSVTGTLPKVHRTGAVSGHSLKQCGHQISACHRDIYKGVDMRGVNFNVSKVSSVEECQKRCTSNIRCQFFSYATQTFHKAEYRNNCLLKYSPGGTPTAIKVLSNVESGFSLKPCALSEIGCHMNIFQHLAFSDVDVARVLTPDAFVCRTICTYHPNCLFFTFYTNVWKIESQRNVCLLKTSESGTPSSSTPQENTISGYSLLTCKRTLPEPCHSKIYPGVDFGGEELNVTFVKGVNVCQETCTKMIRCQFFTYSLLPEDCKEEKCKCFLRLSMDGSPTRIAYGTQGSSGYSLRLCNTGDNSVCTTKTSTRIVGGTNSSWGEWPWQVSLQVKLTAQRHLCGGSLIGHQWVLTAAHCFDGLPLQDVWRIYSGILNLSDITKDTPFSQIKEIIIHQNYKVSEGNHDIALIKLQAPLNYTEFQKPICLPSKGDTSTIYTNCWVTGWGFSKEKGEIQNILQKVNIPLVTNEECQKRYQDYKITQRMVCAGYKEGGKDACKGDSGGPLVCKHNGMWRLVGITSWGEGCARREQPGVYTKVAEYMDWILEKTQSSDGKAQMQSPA
row,Binder,Avg. IC50 [nM]
1,B1,2.5
2,B2,157
3,B3,30.4
4,B4,2.4
5,B5,3.5
6,B6,39.1
7,B7,349
8,B8,86.7
9,B9,> 100000
10,B10,65.3
11,B11,374
12,B12,6.1
13,B13,4110
14,B14,3.8
15,B15,1.4
16,B16,3.5
17,B17,> 17300
18,B18,10300
19,B19,5300

row,Binder,Avg. IC50 [nM]
1,B20,105
2,B21,128
3,B22,2.7
4,B23,57.2
5,B24,88.8
6,B25,43.9
7,B26,22.3
8,B27,4.1
9,B28,4.4
10,B29,54.6
11,B30,12.3
12,B31,> 100000
13,B32,127
14,B33,25.5
15,B34,10.6
16,B35,144
17,B36,35.6
18,B37,> 100000
19,B38,9.2

# Molecular target: T1, Activated human plasma kallikrein …
# Experiment: cell-based or functional assay
# Remark: another data set of the same source
row,Binder,Avg. IC50 [nM]
1,B39,114
2,B40,0.913
3,B41,4000
4,B42,> 100000
5,B43,> 100000
6,B44,3
7,B45,462
8,B46,6390
9,B47,> 100000
10,B48,401
